These results are taken from paper PMC11519345, “Structural variation of types IV-A1- and IV-A3-mediated CRISPR interference”.

The data set has as its target Type IV-A1 effector complex (Cas5-Cas8-Cas7-Cas6 crRNP), DinG-free;DinG (CasDinG, Csf4) type IV-A1 (Pseudomonas oleovorans;Pseudomonas …, UniProt A0A379PL53;A0A379PIR4;A0A379PIR9;A0A379PNK2;A0A379PL92 …, |). As to the kind of experiment: cryo-EM; crRNA; DinG bound; PDB code not assigned in the material; EMSA: 10 mM HEPES pH 7.5, 150 mM NaCl, 1 nM DNA, on ice then 20 min RT, 6% native PAGE in TBE at 4 C; cryo-EM: 10 uM complex + 15 uM DNA in the same buffer, 10. Conditions: protein: recombinant;recombinant; tags: His6 C-terminal on Cas8;; copies: 1;1;5;1;1; bubble: non-complementary protospacer, paired 15 nt and 14+ nt ends.

B1: Type IV-A1 bubbled target DNA (TS/NTS) for cryo-EM (dsDNA)
DNA 1: CGGTCGGGTCATACGTCGCGTCTCGAATCTGATGCGTAACTTGGATGCTTCGTGCGTGATG
DNA 2: CATCACGCACGAAGACCAAGTCAATGCTTAGTCTAATACCTGCGCTCGTATGACCCGACCG
For B1, the binding result was “binds”.
